According to patent publication US20240409645A1 (DUALYX, published 2024):

B1: DC00067 (other)
chain 1: EVQLVESGGGLVQTGGSLRLSCAASGGTFSRDAMAWFRQVPGKEREFVALISWSGATTNYADSVKGRFAISRDNGKNTVYLQMNRLKPADTAIYYCAADRRPMGSRSYFEPTEYDDWGQGTQVTVSSGGGGSGGGGSGGGGSQVQLVESGGGLVQPGGSLRLSCATSGFTFRNNFMSWVRQAPGKGLEWVSTISYGGESTTYAESVKGRFTISRDNAKNTLYLQMNNLKPEDTAVYYCAKATSYDSIRSGSRGQGTQVTVSSDKTHTCPPCPAPEAAGGPSVFLFPPKPKDTLMISRTPEVTCVVVDVSHEDPEVKFNWYVDGVEVHNAKTKPREEQYNSTYRVVSVLTVLHQDWLNGKEYKCKVSNKALGAPIEKTISKAKGQPREPQVYTLPPSRDELTKNQVSLTCLVKGFYPSDIAVEWESNGQPENNYKTTPPVLDSDGSFLLYSKLTVDKSRWQQGNVFSCSVMHEALHNHYTQKSLSLSPGK
chain 2: QVQLVESGGGLVQAGGSLTLSCAAPGRTFGTDVVGWFRQAPGKEREFVASISRSGDGIYYDDSVKGRFTISRNNAWNTVNLQMNSLKVEDTAVYYCAAGDGWSTYDYWGQGTQVTVSSGGGGSGGGGSGGGGSEVQLVESGGGLVQTGGSLRLSCAASGGTFSRDAMAWFRQVPGKEREFVALISWSGATTNYADSVKGRFAISRDNGKNTVYLQMNRLKPADTAIYYCAADRRPMGSRSYFEPTEYDDWGQGTQVTVSSGGGGSGGGGSGGGGSQVQLVESGGGLVQPGGSLRLSCATSGFTFRNNFMSWVRQAPGKGLEWVSTISYGGESTTYAESVKGRFTISRDNAKNTLYLQMNNLKPEDTAVYYCAKATSYDSIRSGSRGQGTQVTVSSDKTHTCPPCPAPEAAGGPSVFLFPPKPKDTLMISRTPEVTCVVVDVSHEDPEVKFNWYVDGVEVHNAKTKPREEQYNSTYRVVSVLTVLHQDWLNGKEYKCKVSNKALGAPIEKTISKAKGQPREPQVYTLPPSRDELTKNQVSLTCLVKGFYPSDIAVEWESNGQPENNYKTTPPVLDSDGSFFLYSRLTVDKSRWQQGNVFSCSVMHEALHNHYTQKSLSLSPGK
B2: DC00070 (other)
chain 1: EVQLVESGGGLVQTGGSLRLSCAASGGTFSRDAMAWFRQVPGKEREFVALISWSGATTNYADSVKGRFAISRDNGKNTVYLQMNRLKPADTAIYYCAADRRPMGSRSYFEPTEYDDWGQGTQVTVSSGGGGSGGGGSGGGGSQVQLVESGGGLVQPGGSLRLSCATSGFTFRNNFMSWVRQAPGKGLEWVSTISYGGESTTYAESVKGRFTISRDNAKNTLYLQMNNLKPEDTAVYYCAKATSYDSIRSGSRGQGTQVTVSSDKTHTCPPCPAPEAAGGPSVFLFPPKPKDTLMISRTPEVTCVVVDVSHEDPEVKFNWYVDGVEVHNAKTKPREEQYNSTYRVVSVLTVLHQDWLNGKEYKCKVSNKALGAPIEKTISKAKGQPREPQVYTLPPSRDELTKNQVSLTCLVKGFYPSDIAVEWESNGQPENNYKTTPPVLDSDGSFLLYSKLTVDKSRWQQGNVFSCSVMHEALHNHYTQKSLSLSPGK
chain 2: QVQLVESGGGLVQAGGSLTLSCAAPGRTFGTDVVGWFRQAPGKEREFVASISRSGDGIYYDDSVKGRFTISRNNAWNTVNLQMNSLKVEDTAVYYCAAGDGWSTYDYWGQGTQVTVSSGGGGSGGGGSGGGGSQVQLVESGGGLVQPGGSLRLSCATSGFTFRNNFMSWVRQAPGKGLEWVSTISYGGESTTYAESVKGRFTISRDNAKNTLYLQMNNLKPEDTAVYYCAKATSYDSIRSGSRGQGTQVTVSSDKTHTCPPCPAPEAAGGPSVFLFPPKPKDTLMISRTPEVTCVVVDVSHEDPEVKFNWYVDGVEVHNAKTKPREEQYNSTYRVVSVLTVLHQDWLNGKEYKCKVSNKALGAPIEKTISKAKGQPREPQVYTLPPSRDELTKNQVSLTCLVKGFYPSDIAVEWESNGQPENNYKTTPPVLDSDGSFFLYSRLTVDKSRWQQGNVFSCSVMHEALHNHYTQKSLSLSPGK
B3: DC00069 (other)
chain 1: EVQLVESGGGLVQTGGSLRLSCAASGGTFSRDAMAWFRQVPGKEREFVALISWSGATTNYADSVKGRFAISRDNGKNTVYLQMNRLKPADTAIYYCAADRRPMGSRSYFEPTEYDDWGQGTQVTVSSGGGGSGGGGSGGGGSQVQLVESGGGLVQPGGSLRLSCATSGFTFRNNFMSWVRQAPGKGLEWVSTISYGGESTTYAESVKGRFTISRDNAKNTLYLQMNNLKPEDTAVYYCAKATSYDSIRSGSRGQGTQVTVSSDKTHTCPPCPAPEAAGGPSVFLFPPKPKDTLMISRTPEVTCVVVDVSHEDPEVKFNWYVDGVEVHNAKTKPREEQYNSTYRVVSVLTVLHQDWLNGKEYKCKVSNKALGAPIEKTISKAKGQPREPQVYTLPPSRDELTKNQVSLTCLVKGFYPSDIAVEWESNGQPENNYKTTPPVLDSDGSFLLYSKLTVDKSRWQQGNVFSCSVMHEALHNHYTQKSLSLSPGK
chain 2: QVQLVESGGGLVQPGGSLRLSCATSGFTFRNNFMSWVRQAPGKGLEWVSTISYGGESTTYAESVKGRFTISRDNAKNTLYLQMNNLKPEDTAVYYCAKATSYDSIRSGSRGQGTQVTVSSGGGGSGGGGSGGGGSQVQLVESGGGLVQAGGSLTLSCAAPGRTFGTDVVGWFRQAPGKEREFVASISRSGDGIYYDDSVKGRFTISRNNAWNTVNLQMNSLKVEDTAVYYCAAGDGWSTYDYWGQGTQVTVSSGGGGSGGGGSGGGGSDKTHTCPPCPAPEAAGGPSVFLFPPKPKDTLMISRTPEVTCVVVDVSHEDPEVKFNWYVDGVEVHNAKTKPREEQYNSTYRVVSVLTVLHQDWLNGKEYKCKVSNKALGAPIEKTISKAKGQPREPQVYTLPPSRDELTKNQVSLTCLVKGFYPSDIAVEWESNGQPENNYKTTPPVLDSDGSFFLYSRLTVDKSRWQQGNVFSCSVMHEALHNHYTQKSLSLSPGK
B4: DC00039 (other)
chain 1: QVQLVESGGGLVQPGGSLRLSCATSGFTFRNNFMSWVRQAPGKGLEWVSTISYGGESTTYAESVKGRFTISRDNAKNTLYLQMNNLKPEDTAVYYCAKATSYDSIRSGSRGQGTQVTVSSDKTHTCPPCPAPEAAGGPSVFLFPPKPKDTLMISRTPEVTCVVVDVSHEDPEVKFNWYVDGVEVHNAKTKPREEQYNSTYRVVSVLTVLHQDWLNGKEYKCKVSNKALGAPIEKTISKAKGQPREPQVYTLPPSRDELTKNQVSLTCLVKGFYPSDIAVEWESNGQPENNYKTTPPVLDSDGSFLLYSKLTVDKSRWQQGNVFSCSVMHEALHNHYTQKSLSLSPGK
chain 2: EVQLVESGGGLVQTGGSLRLSCAASGGTFSRDAMAWFRQVPGKEREFVALISWSGATTNYADSVKGRFAISRDNGKNTVYLQMNRLKPADTAIYYCAADRRPMGSRSYFEPTEYDDWGQGTQVTVSSGGGGSGGGGSGGGGSQVQLVESGGGLVQPGGSLRLSCATSGFTFRNNFMSWVRQAPGKGLEWVSTISYGGESTTYAESVKGRFTISRDNAKNTLYLQMNNLKPEDTAVYYCAKATSYDSIRSGSRGQGTQVTVSSGGGGSGGGGSGGGGSQVQLVESGGGLVQAGGSLTLSCAAPGRTFGTDVVGWFRQAPGKEREFVASISRSGDGIYYDDSVKGRFTISRNNAWNTVNLQMNSLKVEDTAVYYCAAGDGWSTYDYWGQGTQVTVSSGGGGSGGGGSGGGGSDKTHTCPPCPAPEAAGGPSVFLFPPKPKDTLMISRTPEVTCVVVDVSHEDPEVKFNWYVDGVEVHNAKTKPREEQYNSTYRVVSVLTVLHQDWLNGKEYKCKVSNKALGAPIEKTISKAKGQPREPQVYTLPPSRDELTKNQVSLTCLVKGFYPSDIAVEWESNGQPENNYKTTPPVLDSDGSFFLYSRLTVDKSRWQQGNVFSCSVMHEALHNHYTQKSLSLSPGK

These binders were tested against T1, human IL-2 receptor (IL-2Rα/IL-2Rβ/γc) (human, UniProt P01589 22-272; P14784 27-551; P31785 23-369) (assay: cell-based or functional assay).
T1 sequence 1: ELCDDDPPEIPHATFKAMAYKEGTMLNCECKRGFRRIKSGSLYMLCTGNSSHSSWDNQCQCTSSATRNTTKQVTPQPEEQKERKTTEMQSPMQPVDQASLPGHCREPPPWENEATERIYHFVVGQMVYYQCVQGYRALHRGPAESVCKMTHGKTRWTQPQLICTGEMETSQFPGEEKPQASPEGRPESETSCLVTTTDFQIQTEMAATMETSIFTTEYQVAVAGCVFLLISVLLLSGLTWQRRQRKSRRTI
T1 sequence 2: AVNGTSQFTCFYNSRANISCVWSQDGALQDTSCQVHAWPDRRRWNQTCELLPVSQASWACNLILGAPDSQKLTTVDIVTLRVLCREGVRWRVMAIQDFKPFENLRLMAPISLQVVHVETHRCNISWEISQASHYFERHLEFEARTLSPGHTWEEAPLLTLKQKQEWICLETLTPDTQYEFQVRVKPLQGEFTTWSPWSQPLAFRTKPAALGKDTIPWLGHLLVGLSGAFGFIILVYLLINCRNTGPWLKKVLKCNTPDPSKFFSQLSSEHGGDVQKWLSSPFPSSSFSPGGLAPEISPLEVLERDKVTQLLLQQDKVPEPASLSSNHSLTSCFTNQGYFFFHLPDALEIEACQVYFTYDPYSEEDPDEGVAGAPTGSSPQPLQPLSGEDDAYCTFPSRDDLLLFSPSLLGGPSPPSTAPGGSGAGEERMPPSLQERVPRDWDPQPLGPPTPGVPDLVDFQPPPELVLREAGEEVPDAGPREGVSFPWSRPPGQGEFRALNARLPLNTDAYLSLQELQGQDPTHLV
T1 sequence 3: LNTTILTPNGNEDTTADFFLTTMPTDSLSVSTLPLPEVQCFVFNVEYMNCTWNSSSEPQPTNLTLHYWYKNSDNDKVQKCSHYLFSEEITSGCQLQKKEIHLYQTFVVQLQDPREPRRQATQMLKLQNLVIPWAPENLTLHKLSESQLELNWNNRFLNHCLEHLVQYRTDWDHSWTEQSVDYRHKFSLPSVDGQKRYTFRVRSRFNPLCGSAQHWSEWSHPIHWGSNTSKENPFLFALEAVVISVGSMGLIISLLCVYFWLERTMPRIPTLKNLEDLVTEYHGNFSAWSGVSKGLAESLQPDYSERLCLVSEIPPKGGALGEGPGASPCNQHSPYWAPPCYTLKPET
For B1, the “EC50 (nM) pSTAT5, NK, human PBMCs” value was 0.217 nM, the “EC50 (nM) pSTAT5, Treg, human PBMCs” value was less than 0.1 pM and the “Fold Max signal (% pSTAT5+) Treg/NK” value was 2 fold. For the same binder, the “Max signal (% pSTAT5+), NK” value was 39 % pSTAT5+, the “Max signal (% pSTAT5+), Treg” value was 95 % pSTAT5+ and the “fold EC50 NK/Treg” value was greater than 2180 fold. With B2 the “EC50 (nM) pSTAT5, NK, human PBMCs” value was 0.0538 nM, the “EC50 (nM) pSTAT5, Treg, human PBMCs” value was 0.497 pM and the “Fold Max signal (% pSTAT5+) Treg/NK” value was 7 fold. The “Max signal (% pSTAT5+), NK” value was 11 % pSTAT5+, the “Max signal (% pSTAT5+), Treg” value was 80 % pSTAT5+ and the “fold EC50 NK/Treg” value was 108 fold. With B3 the “EC50 (nM) pSTAT5, NK, human PBMCs” value was 0.234 nM, the “EC50 (nM) pSTAT5, Treg, human PBMCs” value was 0.00119 nM and the “Fold Max signal (% pSTAT5+) Treg/NK” value was 7 fold. For the same binder, the “Max signal (% pSTAT5+), NK” value was 12 % pSTAT5+, the “Max signal (% pSTAT5+), Treg” value was 87 % pSTAT5+ and the “fold EC50 NK/Treg” value was 197 fold. With B4 the “EC50 (nM) pSTAT5, NK, human PBMCs” value was 0.0315 nM, the “EC50 (nM) pSTAT5, Treg, human PBMCs” value was 0.761 pM and the “Fold Max signal (% pSTAT5+) Treg/NK” value was 11 fold. The “Max signal (% pSTAT5+), NK” value was 4 % pSTAT5+, the “Max signal (% pSTAT5+), Treg” value was 46 % pSTAT5+ and the “fold EC50 NK/Treg” value was 41 fold.
